Experimental data published in patent US20170015742A1 (published 2017).
Residue numbers refer to the chain shown, from its start. Names may count otherwise. Blank lines part the entries; values can stand above or below the binder they belong to.

Columns and labels:
Human VEGF-A 165 = Human VEGF-A 165 (human, UniProt P15692 207-395); experiment: cell-based or functional assay
VEGF-A = VEGF-A (UniProt P15692-4 27-191, limits assumed); experiment: SPR (Biacore), DVD-Ig captured by anti-human Fc, antigen injected
Summary of the method: (§1)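 Antibodies or DVD-Ig molecules (1 μg/ml) were captured on an anti-human Fc CM5 surface, with antigen injected in solution and responses referenced to the capture-only surface. Rate constants came from a global 1:1 Langmuir fit, and KD = koff/kon.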

PDGF-BB = PDGF-BB (UniProt P01127 82-190); experiment: as above
Summary of the method: as §1

[1] = target: T1, recombinant human VEGF165 (human, UniProt P15692 207-395); experiment: SPR (Biacore), antibody captured by anti-human Fc, hVEGF165 in solution
T1 construct: also called hVEGF165
Method: Unreacted moieties on the biosensor surface were blocked with ethanolamine. For kinetic analysis, rate equations derived from the 1:1 Langmuir binding model were fitted simultaneously to multiple antigen injections (using global fit analysis) with the use of Scrubber 2 (BioLogic Software), Biacore Biaevaluation 4.0.1 software or Biacore T100 Evaluation software. Purified antibodies or DVD-Ig molecules were diluted in running buffer for capture across goat anti-human Fc reaction surfaces. Antibodies or DVD-Ig molecules to be captured as a ligand (1 μg/ml) were injected over reaction matrices at a flow rate of 10 μl/minute. During the assay, all measurements were referenced against the capture surface alone (i.e., with no captured antibody or DVD-Ig molecule). […] The equilibrium dissociation constant KD (M) of the reaction between antibodies and the target antigen was then calculated from the kinetic rate constants by the following formula: KD=Koff/Kₒₙ. Binding was recorded as a function of time and kinetic rate constants were calculated. In this assay, on-rates as fast as 10⁶M⁻¹s⁻¹ and off-rates as slow as 10⁻⁶ s⁻¹ could be measured.
Affinity matured humanized anti-VEGF antibodies were characterized for hVEGF₁₆₅ binding and potency. Binding affinity of these molecules to hVEGF₁₆₅ was determined by Biacore analysis (Example 1.1). Potency was evaluated in both cell-based and ELISA formats. The ability to block binding of hVEGF₁₆₅ to hVEGFR2 was evaluated in a competition ELISA (Example 1.4) Inhibition of hVEGF₁₆₅-induced cell proliferation was assessed using HMVEC-d cells (Example 1.10).

PDGF-BB, sequence (P01127 82-190): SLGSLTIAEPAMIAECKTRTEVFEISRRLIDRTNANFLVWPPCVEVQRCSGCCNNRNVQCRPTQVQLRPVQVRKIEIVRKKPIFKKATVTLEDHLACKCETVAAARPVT
Human VEGF-A 165, sequence (P15692 other isoform, or with tags, fused parts or gaps limits assumed): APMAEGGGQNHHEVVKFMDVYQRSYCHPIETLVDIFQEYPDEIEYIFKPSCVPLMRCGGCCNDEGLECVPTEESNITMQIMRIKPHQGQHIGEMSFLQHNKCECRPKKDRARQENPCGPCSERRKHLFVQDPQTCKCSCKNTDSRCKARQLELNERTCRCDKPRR
VEGF-A, sequence (P15692 other isoform, or with tags, fused parts or gaps limits assumed): as above
T1 sequence (P15692 other isoform, or with tags, fused parts or gaps limits assumed): as above

hVEGF165 IC50 (nM), HMVEC-d proliferation (Human VEGF-A 165): 0.123 nM
B1: hBEW-5C3.5 (antibody, V domains shown)
VH: EIQLVQSGAEVKKPGSSVKVSCKASGYTFTNYGVYWVKQAPGQGLEYMGWINTETGKPTYADDFKGRFTFTLDKSTSTAYMELSSLRSEDTAVYFCARARQLDWFVYWGQGTLVTVSS
VL: DTQLTQSPSSLSASVGDRVTISCRARESLTTSLSWFQQKPGKQPKLLIYGASKLESGVPSRFSGSGSGTDFTLTISSLQPEDFATYFCQQSWYDPPTFGGGTKVEIK

hVEGF165 IC50 (nM), HMVEC-d proliferation (Human VEGF-A 165): > 2 nM
B2: hBEW-5C3.6 (antibody, V domains shown)
VH: B1 VH with I2V, K38R, Y47W, F95Y
VL: B1 VL

hVEGF165 IC50 (nM), HMVEC-d proliferation (Human VEGF-A 165): 0.064 nM
B3: hBEW-9E10.1 (antibody, V domains shown)
VH: EIQLVQSGSELKKPGASVKVSCKASGYTFTNYGMYWVKQAPGQGLEYMGWIDTETGRPTYADDFKGRFVFSLDTSVSTAYLQISSLKAEDTAVYFCARWSGDTTGIRGPWFAYWGQGTLVTVSS
VL: DIRMTQSPSSLSASVGDRVTIECLASEDIYSDLAWYQQKPGKSPKLLIYNANGLQNGVPSRFSGSGSGTDYSLTISSLQPEDVATYFCQQYNYFPGTFGQGTKLEIK

hVEGF165 IC50 (nM), HMVEC-d proliferation (Human VEGF-A 165): 0.181 nM
B4: hBEW-9E10.2 (antibody, V domains shown)
VH: EIQLVQSGAEVKKPGSSVKVSCKASGYTFTNYGMYWVKQAPGQGLEYMGWIDTETGRPTYADDFKGRFTFTADKSTSTAYMELSSLRSEDTAVYFCARWSGDTTGIRGPWFAYWGQGTLVTVSS
VL: B3 VL

Kd (VEGF-A): 0.26 nM
kon (VEGF-A): 360000 M⁻¹ s⁻¹
Kd (PDGF-BB): ≤ 5.3 pM
kon (PDGF-BB): ≥ 9e+07 M⁻¹ s⁻¹
B5: 3E2.1_GS_1E3.4 (PR-1613190) (bispecific antibody, human IgG1, kappa, L234A L235A)
heavy: EVQLVQSGAEVKKPGSSVKVSCKASGYTFTESYMYWVKQAPGQGLELIGRIDPEDGSTDYVEKFKNKATLTADKSTSTAYMELSSLRSEDTAVYFCARFGARSYFYPMDAWGQGTTVTVSSGGGGSGGGGSEIQLVQSGSELKKPGASVKVSCKASGYPFTNSGMYWVKQAPGQGLEYMGWINTEAGKPTYADDFKGRFVFSLDTSVSTAYLQISSLKAEDTAVYFCARWGYISDNSYGWFDYWGQGTLVTVSSASTKGPSVFPLAPSSKSTSGGTAALGCLVKDYFPEPVTVSWNSGALTSGVHTFPAVLQSSGLYSLSSVVTVPSSSLGTQTYICNVNHKPSNTKVDKKVEPKSCDKTHTCPPCPAPEAAGGPSVFLFPPKPKDTLMISRTPEVTCVVVDVSHEDPEVKFNWYVDGVEVHNAKTKPREEQYNSTYRVVSVLTVLHQDWLNGKEYKCKVSNKALPAPIEKTISKAKGQPREPQVYTLPPSREEMTKNQVSLTCLVKGFYPSDIAVEWESNGQPENNYKTTPPVLDSDGSFFLYSKLTVDKSRWQQGNVFSCSVMHEALHNAYTQKSLSLSPGK
light: ETVLTQSPATLSLSPGERATLSCRASESVSTLMHWYQQKPGQQPRLLIYGASNLESGVPARFSGSGSGTDFTLTISSLEPEDFAVYFCQQSWNDPWTFGGGTKVEIKGGSGGGGSGGATQLTQSPSSLSASVGDRVTISCRASEGVYSYMHWYQQKPGKQPKLLIYKASNLASGVPSRFSGSGSGTDFTLTISSLQPEDFATYFCHQNWNDPLTFGQGTKLEIKRTVAAPSVFIFPPSDEQLKSGTASVVCLLNNFYPREAKVQWKVDNALQSGNSQESVTEQDSKDSTYSLSSTLTLSKADYEKHKVYACEVTHQGLSSPVTKSFNRGEC
notes: DVD-Ig: outer hBFU-3E2.1 (PDGF), inner hBEW-1E3.4 (VEGF), linkers GS-H10 / GS-L10(dR); Human IgG1 L234A, L235A, H435A with kappa light chain

hVEGF165 IC50 (nM), HMVEC-d proliferation (Human VEGF-A 165): 0.071 nM
B6: hBEW-5C3.1 (antibody, V domains shown)
VH: EIQLVQSGSELKKPGASVKVSCKASGYTFTNYGVYWVKQAPGQGLEYMGWINTETGKPTYADDFKGRFVFSLDTSVSTAYLQISSLKAEDTAVYYCARARQLDWFVYWGQGTLVTVSS
VL: DTVLTQSPATLSLSPGERATLSCRARESLTTSLSWFQQKPGQQPRLLIYGASKLESGVPARFSGSGSGTDFTLTISSLEPEDFAVYFCQQSWYDPPTFGGGTKVEIK

hVEGF165 IC50 (nM), HMVEC-d proliferation (Human VEGF-A 165): 0.098 nM
B7: hBEW-5C3.4 (antibody, V domains shown)
VH: B6 VH
VL: B1 VL

hVEGF165 IC50 (nM), HMVEC-d proliferation (Human VEGF-A 165): > 2 nM
B8: hBEW-5C3.3 (antibody, V domains shown)
VH: B1 VH with I2V, K38R, Y47W, F95Y
VL: B6 VL

hVEGF165 IC50 (nM), HMVEC-d proliferation (Human VEGF-A 165): 0.162 nM
B9: hBEW-5C3.2 (antibody, V domains shown)
VH: B1 VH
VL: B6 VL

hVEGF165 IC50 (nM), HMVEC-d proliferation (Human VEGF-A 165): 0.168 nM
B10: hBEW-1B10.1 (antibody, V domains shown)
VH: EVQLVESGGGLVQPGGSLRLSCAASGFSFSKYDMAWFRQAPGKGLEWVASITTSGVGTYYRDSVKGRFTVSRDNAKSTLYLQMNSLRAEDTAVYYCARGYGAMDAWGQGTTVTVSS
VL: DIQMTQSPSSLSASVGDRVTITCKASQDIDDYLSWYQQKPGKSPKLVIYAATRLADGVPSRFSGSGSGTDYTLTISSLQPEDFATYYCLQSSSTPWTFGGGTKVEIK

hVEGF165 IC50 (nM), HMVEC-d proliferation (Human VEGF-A 165): 0.222 nM
B11: hBEW-1B10.2 (antibody, V domains shown)
VH: B10 VH with S77N, T78S
VL: B10 VL

Kd (VEGF-A): 0.32 nM
kon (VEGF-A): 350000 M⁻¹ s⁻¹
Kd (PDGF-BB): 1.8 pM
kon (PDGF-BB): 8.4e+07 M⁻¹ s⁻¹
B12: 3E2.1_GS_1B10.1 (PR-1612502) (bispecific antibody, human IgG1, kappa, L234A L235A)
heavy: EVQLVQSGAEVKKPGSSVKVSCKASGYTFTESYMYWVKQAPGQGLELIGRIDPEDGSTDYVEKFKNKATLTADKSTSTAYMELSSLRSEDTAVYFCARFGARSYFYPMDAWGQGTTVTVSSGGGGSGGGGSEVQLVESGGGLVQPGGSLRLSCAASGFSFSKYDMAWFRQAPGKGLEWVASITTSGVGTYYRDSVKGRFTVSRDNAKSTLYLQMNSLRAEDTAVYYCARGYGAMDAWGQGTTVTVSSASTKGPSVFPLAPSSKSTSGGTAALGCLVKDYFPEPVTVSWNSGALTSGVHTFPAVLQSSGLYSLSSVVTVPSSSLGTQTYICNVNHKPSNTKVDKKVEPKSCDKTHTCPPCPAPEAAGGPSVFLFPPKPKDTLMISRTPEVTCVVVDVSHEDPEVKFNWYVDGVEVHNAKTKPREEQYNSTYRVVSVLTVLHQDWLNGKEYKCKVSNKALPAPIEKTISKAKGQPREPQVYTLPPSREEMTKNQVSLTCLVKGFYPSDIAVEWESNGQPENNYKTTPPVLDSDGSFFLYSKLTVDKSRWQQGNVFSCSVMHEALHNAYTQKSLSLSPGK
light: ETVLTQSPATLSLSPGERATLSCRASESVSTLMHWYQQKPGQQPRLLIYGASNLESGVPARFSGSGSGTDFTLTISSLEPEDFAVYFCQQSWNDPWTFGGGTKVEIKGGSGGGGSGGDIQMTQSPSSLSASVGDRVTITCKASQDIDDYLSWYQQKPGKSPKLVIYAATRLADGVPSRFSGSGSGTDYTLTISSLQPEDFATYYCLQSSSTPWTFGGGTKVEIKRTVAAPSVFIFPPSDEQLKSGTASVVCLLNNFYPREAKVQWKVDNALQSGNSQESVTEQDSKDSTYSLSSTLTLSKADYEKHKVYACEVTHQGLSSPVTKSFNRGEC
notes: DVD-Ig: outer hBFU-3E2.1 (PDGF), inner hBEW-1B10.1 (VEGF), linkers GS-H10 / GS-L10(dR); Human IgG1 L234A, L235A, H435A with kappa light chain

hVEGF165 IC50 (nM), HMVEC-d proliferation (Human VEGF-A 165): 0.059 nM
B13: hBEW-9A8.17 (antibody, V domains shown)
VH: EIQLVQSGSELKKPGASVKVSCKASGYTFTNYGMYWVKQAPGQGLEYMGWINTETGKPIYADDFKGRFVFSLDTSVSTAYLQISSLKAEDTAVYYCARVDYDGSFWFAYWGQGTLVTVSS
VL: ETVLTQSPATLSLSPGERATLSCRASESVSTVIHWYQQKPGQQPRLLIHGASNLESGVPARFSGSGSGTDFTLTISSLEPEDFAVYFCQQHWNDPPTFGQGTKLEIK

hVEGF165 IC50 (nM), HMVEC-d proliferation (Human VEGF-A 165): 0.09 nM
B14: hBEW-9A8.21 (antibody, V domains shown)
VH: EIQLVQSGAEVKKPGASVKVSCKASGYTFTNYGMYWVRQAPGQGLEWMGWINTETGKPIYADDFKGRFTFTLDTSTSTAYMELRSLRSDDTAVYYCARVDYDGSFWFAYWGQGTLVTVSS
VL: B13 VL

Kd [1]: 0.012 nM
kon [1]: 9.2e+06 M⁻¹ s⁻¹
B15: CL-28815-IgG (EI version of parent mAb) (antibody, V domains shown)
VH: EVQLVQSGSELKKPGASVKVSCKASGYTFTNYGMYWVRQAPGQGLEWMGWINTETGKPTYADDFKGRFVFSLDTSVSTAYLQISSLKAEDTAVYYCARTNYYYRSYIFYFDYWGQGTMVTVSS
VL: B13 VL with T2I, V32H, I33M, Q43A, H49Y, H91S, P96F
notes: IgG format

hVEGF165 IC50 (nM), HMVEC-d proliferation (Human VEGF-A 165): 0.064 nM
B16: hBEW-9A8.20 (antibody, V domains shown)
VH: B14 VH with R38K, W47Y
VL: B13 VL

hVEGF165 IC50 (nM), HMVEC-d proliferation (Human VEGF-A 165): 0.205 nM
B17: hBEW-1E3.3 (antibody, V domains shown)
VH: EVQLVQSGAEVKKPGASVKVSCKASGYPFTNSGMYWVRQAPGQGLEWMGWINTEAGKPTYADDFKGRFTFTLDTSTSTAYLEIRSLRSDDTAVYYCARWGYISDNSYGWFDYWGQGTLVTVSS
VL: ETVLTQSPATLSLSPGERATLSCRASEGVYSYMHWYQQKPGQQPRLLIYKASNLASGVPARFSGSGSGTDFTLTISSLEPEDFAVYFCHQNWNDPLTFGQGTKLEIK
